From article PMC3404105

Experiments:
[1] = target: Src family kinase 1 (SFK1) (Lytechinus pictus (endogenous in eggs and egg extract)); test: FRET or BRET; time-resolved FRET by two-photon time-domain FLIM; unfertilised L. pictus eggs (T0), fixed, labelled with anti-PLCγ-OG488 (donor) and anti-SFK1-Cy5 (acceptor); FRET efficiency from donor lifetime
[2] = target: Src family kinase 1 (SFK1) (Lytechinus pictus (endogenous in eggs and egg extract)); test: FRET or BRET; time-resolved FRET by two-photon time-domain FLIM; L. pictus eggs three minutes post-fertilisation (T+3), fixed, labelled with anti-PLCγ-OG488 (donor) and anti-SFK1-Cy5 (acceptor); ROI whole egg or male pronucleus
[3] = target: Src family kinase 1 (SFK1) (Lytechinus pictus (endogenous in eggs and egg extract)); test: FRET or BRET; FRET by single-photon multi-frequency domain FLIM; cell-free assay, demembranated sperm nuclei decondensed in fertilised egg extract (S10) with ATP-GS, no GTP; fixed, labelled with anti-PLCγ-OG488 (donor) and anti-SFK1-Alexa 546 (acceptor)

Substance phospholipase Cγ (PLCγ) (enzyme) has an FRET efficiency % (egg ROI) [1] of 18.9%, an FRET efficiency % (MPN ROI) [2] of 4.8% and an FRET efficiency % (egg ROI) [2] of 5.3%. For the same substance, the FRET efficiency [3] was 5.7%.
